Results published in patent publication US20250136677A1 (ZOETIS SERVICES, published 2025).

Columns and labels:
[1] = molecular target: T1, canine IL-31 protein (Canine_IL31) (canine); assay: cell-based or functional assay
T1 chain: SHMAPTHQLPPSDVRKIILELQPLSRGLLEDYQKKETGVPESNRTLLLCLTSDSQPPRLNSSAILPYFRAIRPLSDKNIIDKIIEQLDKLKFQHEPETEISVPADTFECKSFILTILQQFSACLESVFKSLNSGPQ

[2] = molecular target: T2, wildtype feline IL-31 protein (Feline_IL31_wildtype) (feline); assay: cell-based or functional assay
T2 chain: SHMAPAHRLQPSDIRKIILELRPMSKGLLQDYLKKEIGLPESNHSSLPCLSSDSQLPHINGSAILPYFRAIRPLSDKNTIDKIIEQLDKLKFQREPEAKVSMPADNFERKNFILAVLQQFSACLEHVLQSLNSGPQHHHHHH

[3] = molecular target: T1, canine IL-31 protein (Canine_IL31); assay: SPR (Biacore), IL-31 on chip, 1:1 fit
[4] = molecular target: T2, wildtype feline IL-31 protein …; assay: cell-based or functional assay
[5] = molecular target: T3, human IL-31 (human, UniProt Q6EBC2 24-164); assay: SPR (Biacore), IL-31 surface, single antibody concentration
T3 sequence: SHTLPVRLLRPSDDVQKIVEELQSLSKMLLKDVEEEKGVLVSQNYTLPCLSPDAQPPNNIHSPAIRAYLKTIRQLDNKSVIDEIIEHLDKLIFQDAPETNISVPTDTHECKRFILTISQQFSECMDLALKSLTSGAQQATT

[6] = molecular target: T4, mutant feline IL-31 15H05 protein (Feline_IL31_15H05_mutant) (feline); assay: SPR (Biacore), IL-31 protein as surface capture; Biacore KD of Table 1, mutant IL-31 as surface capture; weak binding, about 78 times weaker than on wildtype feline
T4 construct: also called feline 15H05 mutant; 15H05 IL-31 mutant
T4 chain: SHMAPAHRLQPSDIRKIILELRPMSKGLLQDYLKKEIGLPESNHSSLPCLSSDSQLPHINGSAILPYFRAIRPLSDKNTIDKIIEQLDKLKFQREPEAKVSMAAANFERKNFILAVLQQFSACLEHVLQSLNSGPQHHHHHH
Experimental: (§1) The affinity with which candidate mAbs bind canine and feline IL-31 was determined using surface plasmon resonance (SPR) on a Biacore system (Biocore Life Sciences (GE Healthcare), Uppsala, Sweden). To avoid affinity differences associated with differential surface preparation that can occur when immobilizing antibodies to surfaces; a strategy was employed where IL-31 was directly conjugated to the surface. Immobilization was obtained by amine coupling 5 μg/mL IL-31 using N-hydroxysuccinimide (NHS)/1-Ethyl-3-(3-dimethylaminopropyl) carbodiimide (EDC) chemistry. Chips were quenched with ethanolamine and the affinity with which all candidate mAbs bound to the immobilized IL-31 was evaluated. All curves were fit to a 1:1 model. […] Results for affinity measurements are described herein.
(§2) Table 1 below describes the results for biacore analysis using multiple species of IL-31 protein as a surface capture.

[7] = molecular target: T1, canine IL-31 protein (Canine_IL31); assay: SPR (Biacore), IL-31 protein as surface capture
[8] = molecular target: T2, wildtype feline IL-31 protein …; assay: SPR (Biacore), IL-31 on chip, 1:1 fit
Summary of the method: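 IL-31 was amine-coupled (NHS/EDC) to the chip at 5 μg/mL and quenched with ethanolamine, and candidate mAbs were flowed over it as analytes. Binding curves were fitted to a 1:1 model.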

[9] = molecular target: T5, mutant feline IL-31 11E12 protein (Feline_IL31_11E12_mutant) (feline); assay: SPR (Biacore), IL-31 protein as surface capture
T5 construct: also called feline 11E12 mutant; 11E12 IL-31 mutant
T5 chain: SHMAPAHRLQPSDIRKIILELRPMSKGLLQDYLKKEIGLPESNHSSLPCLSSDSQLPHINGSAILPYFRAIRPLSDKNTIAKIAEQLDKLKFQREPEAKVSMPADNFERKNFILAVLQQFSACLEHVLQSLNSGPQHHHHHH
Experimental: as §1, §2

[10] = molecular target: T6, equine IL-31 protein (Equine_IL31) (equine); assay: SPR (Biacore), IL-31 protein as surface capture
T6 construct: Recombinant equine IL-31
T6 chain: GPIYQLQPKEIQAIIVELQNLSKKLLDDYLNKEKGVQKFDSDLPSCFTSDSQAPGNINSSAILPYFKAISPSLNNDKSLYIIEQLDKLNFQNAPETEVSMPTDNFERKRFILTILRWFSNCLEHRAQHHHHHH
Experimental: as §1, §2

[11] = molecular target: T2, wildtype feline IL-31 protein …; assay: SPR (Biacore), IL-31 protein as surface capture
Experimental: as §1, §2

B1: mouse anti IL-31 antibody 15H05 (antibody, mouse IgG1, kappa)
heavy: QVQLQQSAAELARPGASVKMSCKTSGYTFTSYTIHWIKQRPGQGLEWIGNINPTSGYTENNQRFKDKTTLTVDRSSNTAYLQLHSLTSEDSAVYFCARWGFKYDGEWSFDVWGAGTTVTVSSKTTPPSVYPLAPGSAAQTNSMVTLGCLVKGYFPEPVTVTWNSGSLSSGVHTFPAVLESDLYTLSSSVTVPSSPRPSETVTCNVAHPASSTKVDKKIVPRDCGCKPCICTVPEVSSVFIFPPKPKDVLTITLTPKVTCVVVDISKDDPEVQFSWFVDDVEVHTAQTQPREEQFNSTFRSVSELPIMHQDWLNGKEFKCRVNSAAFPAPIEKTISKTKGRPKAPQVYTIPPPKEQMAKDKVSLTCMITDFFPEDITVEWQWNGQPAENYKNTQPIMNTNGSYFVYSKLNVQKSNWEAGNTFTCSVLHEGLHNHHTEKSLSHSPGK
light: DIQMNQSPSSLSASLGDTITVTCRASQGISIWLSWYQQKPGNIPKVLINKASNLHIGVPPRFSGSGSGTHFTLTITSLQPEDIATYYCLQSQTYPLTFGGGTKLEINADAAPTVSIFPPSSEQLTSGGASVVCFLNNFYPKDINVKWKIDGSERQNGVLNSWTDQDSKDSTYSMSSTLTLTKDEYERHNSYTCEATHKTSTSPIVKSFNRNEC
notes: Mouse hybridoma antibody, IgG1 kappa; also called Mu-15H05; MU-15H05
Inhibition of IL-31 induced pSTAT3 IC50 (µg/ml), Canine IL-31 on Canine DH82 cells [1]: 11.2 µg/ml | IC50, inhibition of feline IL-31-induced STAT3 phosphorylation, canine DH82 cells [2]: 2.7 µg/mL | IC50, inhibition of feline IL-31-induced STAT3 phosphorylation, feline FCWF4 cells [2]: 4.26 µg/mL | koff [3]: 6.56e-07 s⁻¹ | kon [3]: 135000 M⁻¹ s⁻¹ | Inhibition of IL-31 induced pSTAT3 IC50 (µg/ml), Feline IL-31 on Feline FCWF-4 cells [4]: 6 µg/ml | binding result [5]: no binding | Kd [6]: 23900 pM | Kd [7]: 1.91 pM | Kd [8]: 348 pM | koff [8]: 1.69e-05 s⁻¹ | kon [8]: 48400 M⁻¹ s⁻¹ | Kd [9]: 11500 pM | Kd [10]: 306 pM | Kd [11]: 306 pM
